Results from patent US7098310B1, “Heterodimers of retinoid X receptors (RXRS) and other steroid hormone receptors” (Ligand Pharmaceuticals, priority 1991, dated 2006).

B1: RXRαm4 (receptor, human, UniProt P19793 61-462, looked up)
chain: MGPPFSVISSPMGPHSMSVPTTPTLGFSTGSPQLSSPMNPVSSSEDIKPPLGLNGVLKVPAHPSGNMASFTKHICAICGDRSSGKHYGVYSCEGCKGFFKRTVRKDLTYTCRDNKDCLIDKRQRNRCQYCRYQKCLAMGMKREAVQEERQRGKDRNENEVESTSSANEDMPVERILEAELAVEPKTETYVEANMGLNPSSPNDPVTNICQAADKQLFTLVEWAKRIPHFSELPLDDQVILLRAGWNELLIASFSHRSIAVKDGILLATGLHVHRNSAHSAGVGAIFDRVLTELVSKMRDMQMDKTELGCLRAIVLFNPDSKGLSNPAEVEALREKVYASLEAYCKHKYPEQPGRFAKLLLRLPALRSIGLKCLEHLFFFKLIGDTPIDTFLMEMLEAPHQMT
notes: range 61-462; 35S-labelled in the column experiment; also called mutant RXRαm4
B2: RXRαm6 (receptor, human, UniProt P19793 1-462, looked up)
chain: MDTKHFLPLDFSTQVNSSLTSPTGRGSMGMKREAVQEERQRGKDRNENEVESTSSANEDMPVERILEAELAVEPKTETYVEANMGLNPSSPNDPVTNICQAADKQLFTLVEWAKRIPHFSELPLDDQVILLRAGWNELLIASFSHRSIAVKDGILLATGLHVHRNSAHSAGVGAIFDRVLTELVSKMRDMQMDKTELGCLRAIVLFNPDSKGLSNPAEVEALREKVYASLEAYCKHKYPEQPGRFAKLLLRLPALRSIGLKCLEHLFFFKLIGDTPIDTFLMEMLEAPHQMT
notes: In vitro translated deletion mutant
B3: TRαm3 (receptor, UniProt P63059-2 1-167, looked up)
chain: MEQKPSKVECGSDPEENSARSPDGKRKRKNGQCPLKSSMSGYIPSYLDKDEQCVVCGDKATGYHYRCITCEGCKGFFRRTIQKNLHPTYSCKYDSCCVIDKITRNQCQLCRFKKCIAVGMAMDLVLDDSKRVAKRKLIEQNRERRRKEEMIRSLQQRPEPTPEEWDL
notes: as for B2
B4: RXRαm3 (receptor, human, UniProt P19793 28-462, looked up)
chain: MAAPSLHPSLGPGIGSPGQLHSPISTLSSPINGMGPPFSVISSPMGPHSMSVPTTPTLGFSTGSPQLSSPMNPVSSSEDIKPPLGLNGVLKVPAHPSGNMASFTKHICAICGDRSSGKHYGVYSCEGCKGFFKRTVRKDLTYTCRDNKDCLIDKRQRNRCQYCRYQKCLAMGMKREAVQEERQRGKDRNENEVESTSSANEDMPVERILEAELAVEPKTETYVEANMGLNPSSPNDPVTNICQAADKQLFTLVEWAKRIPHFSELPLDDQVILLRAGWNELLIASFSHRSIAVKDGILLATGLHVHRNSAHSAGVGAIFDRVLTELVSKMRDMQMDKTELGCLRAIVLFNPDSKGLSNPAEVEALREKVYASLEAYCKHKYPEQPGRFAKLLLRLPALRSIGLKCLEHLFFFKLIGDTPIDTFLMEMLEAPHQMT
notes: range 28-C-terminus
B5: TRαm2 (receptor, UniProt P63059-2 1-213, looked up)
chain: MEQKPSKVECGSDPEENSARSPDGKRKRKNGQCPLKSSMSGYIPSYLDKDEQCVVCGDKATGYHYRCITCEGCKGFFRRTIQKNLHPTYSCKYDSCCVIDKITRNQCQLCRFKKCIAVGMAMDLVLDDSKRVAKRKLIEQNRERRRKEEMIRSLQQRPEPTPEEWDLIHVATEAHRSTNAQGSHWKQRRKFLPDDIGQSPIVSMPDGDKVDLE
notes: as for B2
B6: RARγm1 (receptor, UniProt P13631 1-352, looked up)
chain: MATNKERLFAAGALGPGSGYPGAGFPFAFPGALRGSPPFEMLSPSFRGLGQPDLPKEMASLSVETQSTSSEEMVPSSPSPPPPPRVYKPCFVCNDKSSGYHYGVSSCEGCKGFFRRSIQKNMVYTCHRDKNCIINKVTRNRCQYCRLQKCFEVGMSKEAVRNDRNKKKKEVKEEGSPDSYELSPQLEELITKVSKAHQETFPSLCQLGKYTTNSSADHRVQLDLGLWDKFSELATKCIIKIVEFAKRLPGFTGLSIADQITLLKAACLDILMLRICTRYTPEQDTMTFSDGLTLNRTQMHNAGFGPLTDLVFAFAGQLLPLEMDDTETGLLSAICLICGDRMDLEEPEKVDK
notes: In vitro translated deletion mutant; also called RARγml
B7: RXRαm1 (receptor, human, UniProt P19793 1-402, looked up)
chain: MDTKHFLPLDFSTQVNSSLTSPTGRGSMAAPSLHPSLGPGIGSPGQLHSPISTLSSPINGMGPPFSVISSPMGPHSMSVPTTPTLGFSTGSPQLSSPMNPVSSSEDIKPPLGLNGVLKVPAHPSGNMASFTKHICAICGDRSSGKHYGVYSCEGCKGFFKRTVRKDLTYTCRDNKDCLIDKRQRNRCQYCRYQKCLAMGMKREAVQEERQRGKDRNENEVESTSSANEDMPVERILEAELAVEPKTETYVEANMGLNPSSPNDPVTNICQAADKQLFTLVEWAKRIPHFSELPLDDQVILLRAGWNELLIASFSHRSIAVKDGILLATGLHVHRNSAHSAGVGAIFDRVLTELVSKMRDMQMDKTELGCLRAIVLFNPDSKGLSNPAEVEALREKVYASLEA
notes: range: lacks the carboxyterminal 60 amino acids; In vitro translated deletion mutant
B8: RXRαm5 (receptor, human, UniProt P19793 198-462, looked up)
chain: MGMKREAVQEERQRGKDRNENEVESTSSANEDMPVERILEAELAVEPKTETYVEANMGLNPSSPNDPVTNICQAADKQLFTLVEWAKRIPHFSELPLDDQVILLRAGWNELLIASFSHRSIAVKDGILLATGLHVHRNSAHSAGVGAIFDRVLTELVSKMRDMQMDKTELGCLRAIVLFNPDSKGLSNPAEVEALREKVYASLEAYCKHKYPEQPGRFAKLLLRLPALRSIGLKCLEHLFFFKLIGDTPIDTFLMEMLEAPHQMT

What was measured:
[1] = target: T1, thyroid hormone receptor TRβ (human, UniProt P10828 1-461); test: gel retardation, 32P palindromic TRE (data not shown)
T1 construct: mature; In vitro translated; also called TR-B; c-erb-A-B
T1 sequence (looked up): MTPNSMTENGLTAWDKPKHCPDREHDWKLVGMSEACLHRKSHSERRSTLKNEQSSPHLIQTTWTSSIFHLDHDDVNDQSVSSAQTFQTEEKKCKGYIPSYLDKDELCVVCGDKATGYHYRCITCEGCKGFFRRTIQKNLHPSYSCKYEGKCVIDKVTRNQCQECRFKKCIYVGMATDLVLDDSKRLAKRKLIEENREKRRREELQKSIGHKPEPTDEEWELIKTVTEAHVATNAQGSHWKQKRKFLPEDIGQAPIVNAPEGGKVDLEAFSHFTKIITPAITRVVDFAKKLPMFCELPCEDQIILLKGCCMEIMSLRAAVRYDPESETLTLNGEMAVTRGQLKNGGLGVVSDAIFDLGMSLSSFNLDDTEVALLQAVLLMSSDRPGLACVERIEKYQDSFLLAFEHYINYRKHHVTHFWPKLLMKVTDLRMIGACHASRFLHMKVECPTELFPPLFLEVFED

[2] = target: T2, retinoic acid receptor RARγ (UniProt P13631 1-454, limits assumed); test: gel retardation, 32P palindromic TRE, in vitro translated receptors
T2 construct: mature; In vitro translated
T2 sequence (looked up): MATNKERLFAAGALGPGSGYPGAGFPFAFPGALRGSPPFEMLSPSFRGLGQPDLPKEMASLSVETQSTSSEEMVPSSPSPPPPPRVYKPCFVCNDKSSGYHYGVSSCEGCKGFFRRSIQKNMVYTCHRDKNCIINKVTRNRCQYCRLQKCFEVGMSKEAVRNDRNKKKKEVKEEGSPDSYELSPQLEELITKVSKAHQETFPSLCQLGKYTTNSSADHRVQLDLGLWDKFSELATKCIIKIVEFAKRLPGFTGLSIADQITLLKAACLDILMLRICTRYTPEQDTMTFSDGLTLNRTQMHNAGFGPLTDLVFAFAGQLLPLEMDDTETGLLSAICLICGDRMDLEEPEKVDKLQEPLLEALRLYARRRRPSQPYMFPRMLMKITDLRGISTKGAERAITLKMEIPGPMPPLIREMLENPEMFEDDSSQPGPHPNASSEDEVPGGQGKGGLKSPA
Experimental: (§1) After incubation at room temperature for 45 minutes, the effect of antibody on slow migrating complexes was analyzed by gel retardation using ^32-labelled palindromic TRE as a probe. As a control, receptor mixtures were also incubated with preimmune serum (NI).
(§2) In vitro translated receptor protein (1 to 5 µl depending on the translation efficiency) was incubated with the ^32P-labeled oligonucleotides in a 20-µl reaction mixture containing 10 mM hepes buffer, pH 7.9, 50 mM KCl, 1 mM DTT, 2.5 mM MgCl, 10% glycerol, and 1 µg of poly(dI-dC) at 25° C. for 20 minutes. In general, relative low receptor concentration was used to obtain the clear effect of heterodimer formation. The reaction mixture was then loaded on a 5% nondenaturing polyacrylamide gel containing 0.5× TBE (1×TBE=0.089 M TRIS-borate, 0.089 M boric acid, and 0.002 M EDTA). […] When antibody was used, 1 µl of the antiserum was incubated with the specific translation products at room temperature for 45 minutes before performing the experiments described above.

[3] = target: T3, retinoid x receptor (RXRα) (human, UniProt P19793 1-462); test: as above
T3 construct: mature; In vitro translated full length receptor; 35S-labelled in the column and immunoprecipitation experiments
T3 sequence (looked up): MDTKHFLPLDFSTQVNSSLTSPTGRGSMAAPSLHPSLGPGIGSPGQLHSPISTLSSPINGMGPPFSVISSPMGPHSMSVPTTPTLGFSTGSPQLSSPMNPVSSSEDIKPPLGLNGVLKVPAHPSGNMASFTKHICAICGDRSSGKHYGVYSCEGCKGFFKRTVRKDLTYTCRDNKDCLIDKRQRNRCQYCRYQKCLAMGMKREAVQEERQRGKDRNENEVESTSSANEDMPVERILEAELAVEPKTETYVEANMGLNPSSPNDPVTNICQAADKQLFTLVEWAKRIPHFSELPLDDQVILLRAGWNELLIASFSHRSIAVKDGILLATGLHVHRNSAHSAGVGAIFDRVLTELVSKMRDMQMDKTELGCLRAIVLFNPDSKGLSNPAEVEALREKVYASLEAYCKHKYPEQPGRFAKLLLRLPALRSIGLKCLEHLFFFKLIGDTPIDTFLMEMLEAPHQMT
Experimental: as §1, §2

[4] = target: T4, retinoic acid receptor RARα (UniProt P10276 1-462, limits assumed); test: gel retardation, 32P palindromic TRE (data not shown)
T4 construct: mature; In vitro translated
T4 sequence (looked up): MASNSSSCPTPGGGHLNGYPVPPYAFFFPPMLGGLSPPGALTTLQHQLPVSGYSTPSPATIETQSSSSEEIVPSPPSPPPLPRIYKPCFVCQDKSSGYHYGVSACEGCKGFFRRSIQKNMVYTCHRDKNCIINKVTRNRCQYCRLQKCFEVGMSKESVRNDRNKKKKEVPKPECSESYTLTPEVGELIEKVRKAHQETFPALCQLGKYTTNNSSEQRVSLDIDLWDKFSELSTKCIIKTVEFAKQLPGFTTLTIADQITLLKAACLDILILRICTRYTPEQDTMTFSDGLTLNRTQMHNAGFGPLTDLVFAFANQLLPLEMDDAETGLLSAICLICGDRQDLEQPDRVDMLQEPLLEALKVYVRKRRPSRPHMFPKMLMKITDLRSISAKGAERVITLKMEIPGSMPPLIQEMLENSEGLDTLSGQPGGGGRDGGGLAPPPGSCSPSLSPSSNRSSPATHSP

[5] = target: T5, retinoic acid receptor RARβ (UniProt P10826 1-455, limits assumed); test: as above
T5 construct: mature; In vitro translated
T5 sequence (looked up): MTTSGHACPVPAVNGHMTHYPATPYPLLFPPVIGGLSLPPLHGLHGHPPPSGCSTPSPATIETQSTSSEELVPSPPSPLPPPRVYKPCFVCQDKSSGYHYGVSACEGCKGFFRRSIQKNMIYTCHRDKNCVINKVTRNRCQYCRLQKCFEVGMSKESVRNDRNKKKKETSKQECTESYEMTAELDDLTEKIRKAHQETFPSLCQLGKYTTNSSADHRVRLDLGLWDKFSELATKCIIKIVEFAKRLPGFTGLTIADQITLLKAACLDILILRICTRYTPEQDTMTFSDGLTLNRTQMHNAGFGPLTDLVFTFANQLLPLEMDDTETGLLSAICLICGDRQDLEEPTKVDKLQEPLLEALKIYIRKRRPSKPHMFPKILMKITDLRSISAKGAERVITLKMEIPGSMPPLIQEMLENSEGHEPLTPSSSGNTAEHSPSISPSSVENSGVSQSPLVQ

Row | Binder | binding result [1] | binding result [2] | binding result [3] | other results
1 | B1 | binds |  |  | 
2 | B2 |  | no binding |  | 
3 | B3 |  |  | no binding | 
4 | B4 | binds |  |  | 
5 | B5 |  |  | no binding | 
6 | B6 |  |  | no binding | 
7 | B7 | no binding | no binding |  | binding result [4]: no binding; binding result [5]: no binding
8 | B8 |  | no binding |  | 
